Measurements taken from publication PMC12086504 (Traffic (Copenhagen, Denmark), 2025).

B1: homodimeric Drosophila kinesin‐1 (kinesin heavy chain, no bound light chains) (natural protein, Drosophila melanogaster, UniProt P17210 1-975, looked up)
chain: MSAEREIPAEDSIKVVCRFRPLNDSEEKAGSKFVVKFPNNVEENCISIAGKVYLFDKVFKPNASQEKVYNEAAKSIVTDVLAGYNGTIFAYGQTSSGKTHTMEGVIGDSVKQGIIPRIVNDIFNHIYAMEVNLEFHIKVSYYEIYMDKIRDLLDVSKVNLSVHEDKNRVPYVKGATERFVSSPEDVFEVIEEGKSNRHIAVTNMNEHSSRSHSVFLINVKQENLENQKKLSGKLYLVDLAGSEKVSKTGAEGTVLDEAKNINKSLSALGNVISALADGNKTHIPYRDSKLTRILQESLGGNARTTIVICCSPASFNESETKSTLDFGRRAKTVKNVVCVNEELTAEEWKRRYEKEKEKNARLKGKVEKLEIELARWRAGETVKAEEQINMEDLMEASTPNLEVEAAQTAAAEAALAAQRTALANMSASVAVNEQARLATECERLYQQLDDKDEEINQQSQYAEQLKEQVMEQEELIANARREYETLQSEMARIQQENESAKEEVKEVLQALEELAVNYDQKSQEIDNKNKDIDALNEELQQKQSVFNAASTELQQLKDMSSHQKKRITEMLTNLLRDLGEVGQAIAPGESSIDLKMSALAGTDASKVEEDFTMARLFISKMKTEAKNIAQRCSNMETQQADSNKKISEYEKDLGEYRLLISQHEARMKSLQESMREAENKKRTLEEQIDSLREECAKLKAAEHVSAVNAEEKQRAEELRSMFDSQMDELREAHTRQVSELRDEIAAKQHEMDEMKDVHQKLLLAHQQMTADYEKVRQEDAEKSSELQNIILTNERREQARKDLKGLEDTVAKELQTLHNLRKLFVQDLQQRIRKNVVNEESEEDGGSLAQKQKISFLENNLDQLTKVHKQLVRDNADLRCELPKLEKRLRCTMERVKALETALKEAKEGAMRDRKRYQYEVDRIKEAVRQKHLGRRGPQAQIAKPIRSGQGAIAIRGGGAVGGPSPLAQVNPVNS
modifications: biotin on the biotin tag (biotinylation occurs during expression in Sf9 cells)
B2: heterotetrameric kinesin^KLC (kinesin heavy chain with bound kinesin light chains) (complex)
heavy: B1 chain
light: MTQMSQDEIITNTKTVLQGLEALRVEHVSIMNGIAEVQKDNEKSDMLRKNIENIELGLSEAQVMMALTSHLQNIEAEKHKLKTQVRRLHQENAWLRDELANTQQKFQASEQLVAQLEEEKKHLEFMASVKKYDENQEQDDACDKSRTDPVVELFPDEENEDRHNMSPTPPSQFANQTSGYEIPARLRTLHNLVIQYASQGRYEVAVPLCKQALEDLERTSGHDHPDVATMLNILALVYRDQNKYKEAANLLNDALSIRGKTLGENHPAVAATLNNLAVLYGKRGKYKDAEPLCKRALEIREKVLGKDHPDVAKQLNNLALLCQNQGKYDEVEKYYQRALDIYESKLGPDDPNVAKTKNNLAGCYLKQGRYTEAEILYKQVLTRAHEREFGAIDSKNKPIWQVAEEREEHKFDNRENTPYGEYGGWHKAAKVDSPTVTTTLKNLGALYRRQGMFEAAETLEDCAMRSKKEAYDLAKQTKLSQLLTSNEKRRSKAIKEDLDFSEEKNAKP
modifications: biotin on the biotin tag
B3: Drosophila kinesin^ΔH2 (kinesin heavy chain lacking the hinge 2 region, amino acids K521‐D641) (natural protein, Drosophila melanogaster, UniProt P17210 1-975, looked up)
chain: MSAEREIPAEDSIKVVCRFRPLNDSEEKAGSKFVVKFPNNVEENCISIAGKVYLFDKVFKPNASQEKVYNEAAKSIVTDVLAGYNGTIFAYGQTSSGKTHTMEGVIGDSVKQGIIPRIVNDIFNHIYAMEVNLEFHIKVSYYEIYMDKIRDLLDVSKVNLSVHEDKNRVPYVKGATERFVSSPEDVFEVIEEGKSNRHIAVTNMNEHSSRSHSVFLINVKQENLENQKKLSGKLYLVDLAGSEKVSKTGAEGTVLDEAKNINKSLSALGNVISALADGNKTHIPYRDSKLTRILQESLGGNARTTIVICCSPASFNESETKSTLDFGRRAKTVKNVVCVNEELTAEEWKRRYEKEKEKNARLKGKVEKLEIELARWRAGETVKAEEQINMEDLMEASTPNLEVEAAQTAAAEAALAAQRTALANMSASVAVNEQARLATECERLYQQLDDKDEEINQQSQYAEQLKEQVMEQEELIANARREYETLQSEMARIQQENESAKEEVKEVLQALEELAVNYDQSNKKISEYEKDLGEYRLLISQHEARMKSLQESMREAENKKRTLEEQIDSLREECAKLKAAEHVSAVNAEEKQRAEELRSMFDSQMDELREAHTRQVSELRDEIAAKQHEMDEMKDVHQKLLLAHQQMTADYEKVRQEDAEKSSELQNIILTNERREQARKDLKGLEDTVAKELQTLHNLRKLFVQDLQQRIRKNVVNEESEEDGGSLAQKQKISFLENNLDQLTKVHKQLVRDNADLRCELPKLEKRLRCTMERVKALETALKEAKEGAMRDRKRYQYEVDRIKEAVRQKHLGRRGPQAQIAKPIRSGQGAIAIRGGGAVGGPSPLAQVNPVNS
modifications: biotin on the biotin tag
B4: kinesin^ΔH2 with added kinesin light chain (KLC) (complex)
heavy: B3 chain
light: B2 light
modifications: biotin on the biotin tag

Assays:
[1] = target: T1, BicD^CC2‐CC3 (amino acids 318–782) (Drosophila, UniProt P16568 318-782, biotin on the biotin tag); experiment: single-molecule TIRF microscopy
T1 sequence (looked up): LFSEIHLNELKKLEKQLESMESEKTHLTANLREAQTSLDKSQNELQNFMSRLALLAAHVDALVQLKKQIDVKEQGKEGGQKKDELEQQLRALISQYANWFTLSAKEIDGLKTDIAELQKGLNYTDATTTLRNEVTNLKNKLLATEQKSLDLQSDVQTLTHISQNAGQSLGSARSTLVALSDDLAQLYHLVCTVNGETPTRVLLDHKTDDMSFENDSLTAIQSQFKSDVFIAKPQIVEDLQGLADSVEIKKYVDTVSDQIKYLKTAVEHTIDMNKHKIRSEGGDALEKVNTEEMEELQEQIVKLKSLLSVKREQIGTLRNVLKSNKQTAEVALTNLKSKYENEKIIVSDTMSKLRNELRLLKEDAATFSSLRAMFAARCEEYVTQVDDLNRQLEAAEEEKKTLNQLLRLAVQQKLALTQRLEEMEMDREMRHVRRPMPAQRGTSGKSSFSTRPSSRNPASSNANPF

[2] = target: T1, BicD^CC2‐CC3 (amino acids 318–782); experiment: interferometric scattering mass spectrometry

Binder	percent of Qdots in complexes with BicD^CC2-CC3 [1] [%]	stoichiometry N [2] [kinesins per BicD^CC2-CC3]
B1	16.4	–
B2	3.7	–
B3	21.3	2
B4	6.6	–
